# Molecular target: T1, biotinylated human D-C5a (mirror-image C5a) (Homo sapiens) (UniProt P01031)
# T1 sequence: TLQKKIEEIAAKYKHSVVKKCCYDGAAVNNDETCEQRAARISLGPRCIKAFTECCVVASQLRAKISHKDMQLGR
# Experiment: pulldown
Sequence,"Kd (37 C, 1 mM MgCl2, 1 mM CaCl2) [nM]",further results
GUACUGCGUUCGGACGUGGCAUGUUCCUUGACAAACGGUUGGCAGUAC [182-E5],2.4,–
GUGCUGAACACGCCGCGUAGGACUUCAAUGGAGUAGAAUGGGCAGCAC [179-A3],7.2,–
AGCGUGCUCGUCCGAUUGGCGGCACCCUUGCGGGACUGGGGAGUACGCU [172-D7-003],–,Kd (U to C at 3' end of 5'-terminal stretch): 372 nM
GCUGGGCGUGUUUACUUGCUUAAUAGGGGGCCCAGC [185-H3-001],5,–
GCUGAACACGCCGCGUAGGACCCAAUGGGUAGAAUGGGCAGC [179-A3-015],–,Kd (reference for type C ranking): > 7.2 nM
AGCGUGCUUGUCCGAUUGGCGGCACCCUUGCGGGACUGGGGAGUACGCU [172-D7-000],30,–
GUGCUGGGUUCGGACGUGGCAUGUUCCUUGAUAAACGGUUGCCAGCAC [182-A8],3.2,–
GUGCUUGUCCGAUUGGCGGCACCCUUGCGGGACUGGGGAGUAC [172-D7-002],–,Kd (six base pair terminal helix): 108 nM
GUGCUGCGUUCGGACGUGGCAUGUUCCUUGACAAACGGUUGGCAGCAC [182-C5],2.2,–

# — US20110046207
